Experimental findings from PMC11066007, “CORVET-specific subunit levels determine the balance between HOPS/CORVET endosomal tethering complexes” (Scientific Reports, 2024) are described below.

In one assay the target is T1, VPS39-FLAG (human, UniProt Q96JC1 1-886).
T1 construct: VPS39, human, HOPS-specific subunit; DNA region encoding the full-length protein fused with a FLAG tag; also called HOPS-specific VPS39; not shown: FLAG, N-terminal, kept
T1 sequence (looked up): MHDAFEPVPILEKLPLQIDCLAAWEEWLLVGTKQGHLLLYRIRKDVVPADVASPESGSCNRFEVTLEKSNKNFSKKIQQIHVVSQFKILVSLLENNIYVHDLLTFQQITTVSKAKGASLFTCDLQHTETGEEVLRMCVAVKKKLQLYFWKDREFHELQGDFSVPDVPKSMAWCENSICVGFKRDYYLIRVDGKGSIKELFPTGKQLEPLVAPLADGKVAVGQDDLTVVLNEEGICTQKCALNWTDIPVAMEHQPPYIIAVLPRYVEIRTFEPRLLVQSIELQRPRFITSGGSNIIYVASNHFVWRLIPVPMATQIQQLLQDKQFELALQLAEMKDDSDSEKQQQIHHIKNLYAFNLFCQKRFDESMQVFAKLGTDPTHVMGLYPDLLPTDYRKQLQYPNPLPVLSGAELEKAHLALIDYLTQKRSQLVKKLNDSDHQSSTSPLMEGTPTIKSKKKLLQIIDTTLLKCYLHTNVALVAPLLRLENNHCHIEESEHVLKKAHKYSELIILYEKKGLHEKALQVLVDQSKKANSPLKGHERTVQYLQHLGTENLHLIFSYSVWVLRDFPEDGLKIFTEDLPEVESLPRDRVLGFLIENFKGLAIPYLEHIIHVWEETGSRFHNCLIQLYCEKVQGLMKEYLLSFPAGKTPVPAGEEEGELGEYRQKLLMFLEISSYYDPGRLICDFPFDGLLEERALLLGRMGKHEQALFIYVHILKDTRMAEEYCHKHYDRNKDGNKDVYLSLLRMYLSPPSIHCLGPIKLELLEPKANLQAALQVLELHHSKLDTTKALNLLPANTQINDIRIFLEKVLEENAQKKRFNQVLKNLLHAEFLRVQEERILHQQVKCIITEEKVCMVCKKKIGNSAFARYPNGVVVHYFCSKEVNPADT
The assay is described as follows: co-IP; anti-FLAG beads on total lysates of HEK293 cells stably transfected with a FLAG-tagged specific subunit, with or without transient overexpression of the counterpart subunit (control: pCMV); endogenous VPS11 and VPS18 detected by western blot, densitometry with ImageJ; lysis buffer 50 mM TRIS-HCl pH 7.5, 150 mM NaCl, 1% Triton X-100, 5 mM EDTA; 1.5 h at 4 °C. As to conditions: partners not purified. On the technique in general: Immunoblotting shows a protein as a band on a membrane.

In a further assay the target is T2, VPS8-FLAG (human, UniProt Q8N3P4 1-1428).
T2 construct: VPS8, human, CORVET-specific subunit; DNA region encoding the full-length protein fused with a FLAG tag; also called CORVET-specific VPS8; source: HEK293, stably transfected (pCMV3), in lysate; not shown: FLAG, C-terminal, kept
T2 sequence (looked up): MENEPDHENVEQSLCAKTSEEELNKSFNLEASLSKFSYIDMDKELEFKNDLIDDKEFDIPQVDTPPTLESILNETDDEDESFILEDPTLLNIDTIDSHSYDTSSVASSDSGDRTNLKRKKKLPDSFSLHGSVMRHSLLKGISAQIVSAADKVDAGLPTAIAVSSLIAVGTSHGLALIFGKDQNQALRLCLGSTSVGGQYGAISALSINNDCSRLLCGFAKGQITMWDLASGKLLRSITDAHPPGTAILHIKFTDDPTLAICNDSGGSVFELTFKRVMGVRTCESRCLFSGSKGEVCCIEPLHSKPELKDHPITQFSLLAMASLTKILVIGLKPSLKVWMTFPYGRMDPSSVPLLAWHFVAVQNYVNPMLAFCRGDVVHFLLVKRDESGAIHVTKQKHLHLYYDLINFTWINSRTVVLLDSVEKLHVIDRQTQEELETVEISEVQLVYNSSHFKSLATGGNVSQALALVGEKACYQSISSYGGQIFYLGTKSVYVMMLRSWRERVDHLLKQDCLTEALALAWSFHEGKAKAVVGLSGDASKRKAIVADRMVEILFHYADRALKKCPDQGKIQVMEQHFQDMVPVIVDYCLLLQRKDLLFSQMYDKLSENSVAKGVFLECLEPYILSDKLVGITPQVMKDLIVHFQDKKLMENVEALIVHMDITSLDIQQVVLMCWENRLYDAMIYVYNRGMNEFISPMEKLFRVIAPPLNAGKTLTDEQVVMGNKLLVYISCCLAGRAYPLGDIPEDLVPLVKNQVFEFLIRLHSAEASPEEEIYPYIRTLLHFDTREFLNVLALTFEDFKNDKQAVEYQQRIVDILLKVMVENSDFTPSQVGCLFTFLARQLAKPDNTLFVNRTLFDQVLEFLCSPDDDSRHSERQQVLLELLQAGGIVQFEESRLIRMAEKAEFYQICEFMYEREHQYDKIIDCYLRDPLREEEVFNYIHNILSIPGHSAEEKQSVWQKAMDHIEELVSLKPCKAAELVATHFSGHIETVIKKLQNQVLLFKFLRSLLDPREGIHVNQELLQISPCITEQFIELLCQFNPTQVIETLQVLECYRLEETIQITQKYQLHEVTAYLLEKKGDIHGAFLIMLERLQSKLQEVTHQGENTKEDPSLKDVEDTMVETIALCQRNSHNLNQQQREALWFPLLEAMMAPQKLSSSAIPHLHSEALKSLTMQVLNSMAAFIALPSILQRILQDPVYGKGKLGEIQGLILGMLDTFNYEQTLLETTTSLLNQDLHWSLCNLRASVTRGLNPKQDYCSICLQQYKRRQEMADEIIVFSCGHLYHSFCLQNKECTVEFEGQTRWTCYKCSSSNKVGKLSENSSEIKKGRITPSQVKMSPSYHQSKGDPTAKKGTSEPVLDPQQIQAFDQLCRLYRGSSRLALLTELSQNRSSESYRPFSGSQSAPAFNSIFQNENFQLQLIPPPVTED
The assay is described as above. As to conditions: partners not purified.

B1: VPS18 (natural protein, human (endogenous in HEK293), UniProt Q9P253 1-973, looked up)
chain: MASILDEYENSLSRSAVLQPGCPSVGIPHSGYVNAQLEKEVPIFTKQRIDFTPSERITSLVVSSNQLCMSLGKDTLLRIDLGKANEPNHVELGRKDDAKVHKMFLDHTGSHLLIALSSTEVLYVNRNGQKVRPLARWKGQLVESVGWNKALGTESSTGPILVGTAQGHIFEAELSASEGGLFGPAPDLYFRPLYVLNEEGGPAPVCSLEAERGPDGRSFVIATTRQRLFQFIGRAAEGAEAQGFSGLFAAYTDHPPPFREFPSNLGYSELAFYTPKLRSAPRAFAWMMGDGVLYGALDCGRPDSLLSEERVWEYPEGVGPGASPPLAIVLTQFHFLLLLADRVEAVCTLTGQVVLRDHFLEKFGPLKHMVKDSSTGQLWAYTERAVFRYHVQREARDVWRTYLDMNRFDLAKEYCRERPDCLDTVLAREADFCFRQRRYLESARCYALTQSYFEEIALKFLEARQEEALAEFLQRKLASLKPAERTQATLLTTWLTELYLSRLGALQGDPEALTLYRETKECFRTFLSSPRHKEWLFASRASIHELLASHGDTEHMVYFAVIMQDYERVVAYHCQHEAYEEALAVLARHRDPQLFYKFSPILIRHIPRQLVDAWIEMGSRLDARQLIPALVNYSQGGEVQQVSQAIRYMEFCVNVLGETEQAIHNYLLSLYARGRPDSLLAYLEQAGASPHRVHYDLKYALRLCAEHGHHRACVHVYKVLELYEEAVDLALQVDVDLAKQCADLPEEDEELRKKLWLKIARHVVQEEEDVQTAMACLASCPLLKIEDVLPFFPDFVTIDHFKEAICSSLKAYNHHIQELQREMEEATASAQRIRRDLQELRGRYGTVEPQDKCATCDFPLLNRPFYLFLCGHMFHADCLLQAVRPGLPAYKQARLEELQRKLGAAPPPAKGSARAKEAEGGAATAGPSREQLKADLDELVAAECVYCGELMIRSIDRPFIDPQRYEEEQLSWL
notes: VPS18, shared class C core subunit of HOPS and CORVET, detected by anti-VPS18 western blot in anti-FLAG precipitates; also called core subunit VPS18; source: endogenous, HEK293 lysate
In the case of B1, the “relative amount bound with Tgfbrap1-HA overexpressed (control cells HEK + pCMV as reference)” value with VPS39-FLAG is 0.63 relative to control cells. The “relative amount bound with Vps41-HA overexpressed (control cells HEK + pCMV as reference)” value in the assay with VPS8-FLAG was 1.21 relative to control cells.

B2: VPS11 (natural protein, human (endogenous in HEK293), UniProt Q9H270 1-941, looked up)
chain: MAAYLQWRRFVFFDKELVKEPLSNDGAAPGATPASGSAASKFLCLPPGITVCDSGRGSLVFGDMEGQIWFLPRSLQLTGFQAYKLRVTHLYQLKQHNILASVGEDEEGINPLVKIWNLEKRDGGNPLCTRIFPAIPGTEPTVVSCLTVHENLNFMAIGFTDGSVTLNKGDITRDRHSKTQILHKGNYPVTGLAFRQAGKTTHLFVVTTENVQSYIVSGKDYPRVELDTHGCGLRCSALSDPSQDLQFIVAGDECVYLYQPDERGPCFAFEGHKLIAHWFRGYLIIVSRDRKVSPKSEFTSRDSQSSDKQILNIYDLCNKFIAYSTVFEDVVDVLAEWGSLYVLTRDGRVHALQEKDTQTKLEMLFKKNLFEMAINLAKSQHLDSDGLAQIFMQYGDHLYSKGNHDGAVQQYIRTIGKLEPSYVIRKFLDAQRIHNLTAYLQTLHRQSLANADHTTLLLNCYTKLKDSSKLEEFIKKKSESEVHFDVETAIKVLRQAGYYSHALYLAENHAHHEWYLKIQLEDIKNYQEALRYIGKLPFEQAESNMKRYGKILMHHIPEQTTQLLKGLCTDYRPSLEGRSDREAPGCRANSEEFIPIFANNPRELKAFLEHMSEVQPDSPQGIYDTLLELRLQNWAHEKDPQVKEKLHAEAISLLKSGRFCDVFDKALVLCQMHDFQDGVLYLYEQGKLFQQIMHYHMQHEQYRQVISVCERHGEQDPSLWEQALSYFARKEEDCKEYVAAVLKHIENKNLMPPLLVVQTLAHNSTATLSVIRDYLVQKLQKQSQQIAQDELRVRRYREETTRIRQEIQELKASPKIFQKTKCSICNSALELPSVHFLCGHSFHQHCFESYSESDADCPTCLPENRKVMDMIRAQEQKRDLHDQFQHQLKCSNDSFSVIADYFGRGVFNKLTLLTDPPTARLTSSLEAGLQRDLLMHSRRGT
notes: VPS11, shared class C core subunit of HOPS and CORVET, detected by anti-VPS11 western blot in anti-FLAG precipitates; also called core subunit VPS11; source: endogenous, HEK293 lysate
Consider B2, for which, in the assay with VPS39-FLAG, the “relative amount bound with Tgfbrap1-HA overexpressed (control cells HEK + pCMV as reference)” value is 0.66 relative to control cells. For the same molecule, the “relative amount bound with Vps41-HA overexpressed (control cells HEK + pCMV as reference)” value in the assay with VPS8-FLAG is 1.52 relative to control cells.
